From patent US20240374685A1, “METHODS OF TREATING LOCALLY ADVANCED OR METASTATIC PANCREATIC ADENOCARCINOMA USING AXL DECOY RECEPTORS AS FIRST-LINE THERAPY” (Aravive Inc, priority 2021, published 2024)

Experiments:
[1] = test system: metastatic pancreatic adenocarcinoma; settings: cited from earlier work
[2] = test system: platinum-resistant, recurrent ovarian cancer; test: Ph1b trial in platinum-resistant, recurrent ovarian cancer; type: in vivo, human
Experimental: AVB-S6-500 was evaluated in a Ph1b trial in combination with either paclitaxel or pegylated liposomal doxorubicin in subjects with platinum-resistant, recurrent ovarian cancer. Fifty-three subjects were dosed with AVB-S6-500 at doses ranging from 10 to 20 mg/kg once every 2 weeks in combination with their physician-chosen chemotherapy. […] All infusion reactions have been Grade 1 or 2, none met serious criteria, and all resolved without sequelae.

monkey = test: 3-month monkey toxicity study; type: in vivo
[3] = test system: pancreatic (PDA1-1) models; test: Pancreatic mouse models; type: in vivo
aggressive human cancers [4] = test: Preclinical (nonclinical) tumor models; type: in vivo, mouse
[5] = test system: locally advanced, recurrent, or metastatic 1L pancreatic adenocarcinoma; test: Phase 1b study of AVB-S6-500 plus nab-paclitaxel and gemcitabine
Experimental: The AVB-S6-500 volume is adjusted according to the subject's weight and diluted prior to infusion.
On days when all three drugs are administered, the sequence of administration is AVB-S6-500 infusion first followed by at least a 30-minute observation period, then nab-paclitaxel immediately followed by gemcitabine. AVB-S6-500 (15 mg/kg) will be administered by a 1-hour IV infusion on Days 1 and 15 of each 28-day cycle. Subjects will receive premedication with anti-H1 antagonists (anti-H1) and anti-H2 antagonists (anti-H2) (steroids optional) prior to administration of AVB-S6-500 to reduce the risk and severity of infusion reactions. Nab-paclitaxel (125 mg/m2) will be administered by a 30-40-minute IV infusion on Days 1, 8, and 15 of each 28-day cycle. Immediately following nab-paclitaxel, gemcitabine (1000 mg/m2) will be administered by a 30-minute IV infusion on Days 1, 8, and 15 of each 28-day cycle. Appropriate premedication with corticosteroids, diphenhydramine, and H2 antagonists (as per institutional practice, with IV antihistamines and steroids strongly recommended) should be administered prior to administration of nab-paclitaxel and gemcitabine.
The Ph1b portion of this study is a multicenter, open-label, single treatment arm group design to evaluate the safety, tolerability, and preliminary efficacy of AVB-S6-500 in combination with nab-paclitaxel and gemcitabine in subjects with locally advanced, recurrent, or metastatic 1L pancreatic adenocarcinoma.

aggressive human cancers [6] = settings: cited from earlier work
GAS6 = target: T1, GAS6 (Homo sapiens, UniProt Q14393); test: Binding affinity to GAS6
T1 sequence (Q14393 31-678): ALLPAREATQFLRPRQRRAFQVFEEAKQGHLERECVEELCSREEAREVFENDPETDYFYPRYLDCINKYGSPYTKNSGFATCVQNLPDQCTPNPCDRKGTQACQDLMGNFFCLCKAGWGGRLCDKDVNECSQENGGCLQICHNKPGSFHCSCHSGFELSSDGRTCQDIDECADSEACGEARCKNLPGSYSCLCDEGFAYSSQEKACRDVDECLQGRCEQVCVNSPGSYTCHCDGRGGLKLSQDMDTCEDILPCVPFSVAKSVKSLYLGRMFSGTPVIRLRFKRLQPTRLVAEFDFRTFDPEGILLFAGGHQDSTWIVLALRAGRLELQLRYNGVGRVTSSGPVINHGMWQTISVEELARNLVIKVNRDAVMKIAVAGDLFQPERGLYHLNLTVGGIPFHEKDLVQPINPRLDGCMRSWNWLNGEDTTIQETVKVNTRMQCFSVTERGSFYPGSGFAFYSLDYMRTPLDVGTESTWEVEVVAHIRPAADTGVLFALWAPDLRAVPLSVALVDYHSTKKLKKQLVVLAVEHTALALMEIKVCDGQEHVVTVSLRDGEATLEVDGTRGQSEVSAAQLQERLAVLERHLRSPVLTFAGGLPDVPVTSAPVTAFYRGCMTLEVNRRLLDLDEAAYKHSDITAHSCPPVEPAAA

highly metastatic cells = test: AXL signaled invasion and migration in vitro; type: cell-based
[7] = Pharmacokinetics in the cynomolgus monkey; type: in vivo; settings: IV
Excerpt: The pharmacokinetics (PK) and toxicokinetics of AVB-S6-500 and pharmacodynamics (PD) of growth arrest specific-6 protein (GAS6) have been investigated in mice (intraperitoneal [IP] and intravenous [IV] routes) and monkeys (IV route) following single and repeat dosing. The PK profile of AVB-S6-500 is compatible with target-mediated drug disposition (TMDD) with 2 parallel elimination paths: normal clearance of IgG and second order that is saturable and fits the typical 2-compartment model. […] Using the TMDD model (Dirks, N. A., Clinical Pharmacokinetics, 633-659, 2010), the human dose estimated to be efficacious may range from 1 mg/kg (to ensure GAS6 levels remain at least 90% less than baseline) to 20 mg/kg (to ensure 99% abrogation of GAS6 and allowing for a 3-fold increase in GAS6 levels in patients with cancer relative to normal levels). This model was used to select first-in-human dosing, and an external validation showing good agreement between projections and clinical observations has been published (Bonifacio, L., Clinical and Translational Science, 1-8, 2019).

healthy volunteers = test: First-in-human Phase 1 single ascending dose and repeat-dose study; type: in vivo
Experimental: Single dose cohorts of 1, 2.5, 5, and 10 mg/kg were evaluated as well as 1 RD cohort dosed with 5 mg/kg once weekly for 4 weeks.

mouse = test: 3-month mouse toxicity study; type: in vivo
Experimental: There were no clinical observations, no changes in urinalysis parameters, no ophthalmology signs, and no macroscopic or microscopic observations of significance related to the administration of AVB-S6-500 at doses up to the NOAEL of 200 mg/kg/week.

[8] = clinical data from prior studies of AVB-S6-500
[9] = number of the 5 subjects at 15 mg/kg, with chemotherapy

In the case of `Nc1ccn([C@@H]2O[C@H](CO)[C@@H](O)C2(F)F)c(=O)n1` [gemcitabine], the OS ([1]; 861 subjects randomized) is listed as 6.7 months, the Sepsis ([1]; all grades) is listed as 2% and the Fatal events ([1]; in vivo) is listed as 4%. The median progression-free survival ([1]; in vivo) was 3.7 months, the pneumonitis ([1]; in vivo) was 1% and the “proportion of patients with SAEs” value ([1]; in vivo) was 43%. The “response rate according to independent review” value ([1]; in vivo) was 7%.
In the case of “AVB-S6-500: soluble AXL variant polypeptide fusion protein comprising an Fc domain, a linker, lacks a functional FN domain, SEQ ID NO: 2”, the dose-limiting toxicities ([2]; 10 to 20 mg/kg every 2 weeks with paclitaxel or pegylated liposomal doxorubicin, 53 subjects) is reported as “No dose-limiting toxicities were observed”, the “grade of infusion reactions” value ([2]; all infusion reactions) is reported as “Grade 1 or 2” and the “toxicity, anemia” value [2, 8] is reported as 21%. The “toxicity, fatigue” value [2, 8] was 26%, the “toxicity, infusion reaction” value [2, 8] was 21% and the “toxicity, nausea” value [2, 8] was 13%. For the same compound, the “complete response (CR)” value [2, 9] was 1, the “partial responses (PRs)” value [2, 9] was 2 and the clinical pathology changes (monkey; monkey, in vivo) was “non-dose-dependent clinical pathology changes seen and those were consistent with an immune response in monkeys to the human AVB-S6-500 protein”. The mortalities (monkey; monkey, in vivo) was “no mortalities”, the NOAEL (monkey; once-weekly 30-minute IV infusion, 50, 100, 150 mg/kg) was “at least 150 mg/kg/dose” and the “metastatic tumor weight and number” value ([3]; PDA1-1 models, combined with gemcitabine) was “Significant reductions”. For the same compound, the fibrosis ([3]; combined with gemcitabine) was “substantially decreased”, the survival ([3]; combined with gemcitabine) was “prolonged” and the metastasis development ([3]; monotherapy) was “decrease in metastasis development”. The “effect on tumor cells in vivo” value (aggressive human cancers [4]; dosing 4-7 days after tumor inoculation, small tumors established in the mouse) was “regression of tumor cells”, the metastatic disease (aggressive human cancers [4]; preclinical models of aggressive human cancers) was “inhibiting metastatic disease” and the direct cytotoxicity (tumor cells) was “not directly cytotoxic”. The “patients with Grade 4 or 5 adverse effects” value ([5]; AVB-S6-500 related, N = 21) was “no patients”, the “AEs Leading to AVB-S6-500 Treatment Discontinuation, events” value ([5]; N = 21) was “fatigue and sepsis” and the “AVB-S6-500-Related Deaths” value ([5]; N = 21) was “no AVB-S6-500 related deaths”. The “AEs Leading to AVB-S6-500 Treatment Discontinuation” value ([5]; patients (% of N = 21)) was 2, the “AEs of Special Interest (Infusion Related Reactions)” value ([5]; patients (% of N = 21)) was 3 and the “Grade 3 Adverse Effects Related to AVB-S6-500” value ([5]; patients (% of N = 21)) was 6. The “toxicity in pharmacology studies” value (aggressive human cancers [6]; mouse, in vivo) was “no toxicity”, the “antitumor efficacy compared with other anti-AXL small molecules in clinical development” value (aggressive human cancers [6]; nonclinical models) was “superior antitumor efficacy” and the “apparent affinity to GAS6” value (GAS6) was 93-324 femtomolar. The “higher affinity than wild-type (WT) AXL” value (GAS6) was “approximately 200 fold”, the “AXL signaled invasion and migration” value (highly metastatic cells) was “dramatically reducing AXL signaled invasion and migration” and the clearance ([7]; doses above 5 mg/kg) was “lower”. For the same compound, the half-life ([7]; doses above 5 mg/kg) was “longer”, the volume of distribution ([7]; doses above 5 mg/kg) was “larger” and the clearance ([7]; doses below 5 mg/kg) was “high”. The half-life ([7]; doses below 5 mg/kg) was “short”, the “maximum tolerated dose (MTD)” value (healthy volunteers; human, in vivo) was “not reached” and the “dose related AEs or SAEs” value (healthy volunteers; in vivo) was “no dose related AEs or SAEs”. For the same compound, the tolerability (healthy volunteers; single 1, 2.5, 5, 10 mg/kg, 5 mg/kg weekly for 4 weeks, IV over 60 minutes) was “well tolerated at all doses”, the mortalities (mouse; mouse, in vivo) was “no mortalities” and the NOAEL (mouse; twice-weekly slow bolus IV infusion) was 200 mg/kg/week. The “no-observed-adverse-effect-level (NOAEL)” value (mouse; twice-weekly slow bolus IV infusion, 25, 50, 100 mg/kg) was “at least 100 mg/kg/dose”.
